{
  "source": "patent US20110245167A1",
  "about": "(UNIVERSITY OF TOLEDO, published 2011)",
  "binders": {"B1": {"name": "pNaKtide (HIV-Tat-NaKtide) (peptide)", "peptide": "not shown"}},
  "target": "Recombinant human Src expressed in Sf9 insect cells (purified recombinant full-length Src from Upstate … (human, UniProt P12931 2-536))",
  "test": "cell-based or functional assay",
  "data": [
    {"binder": "B1", "values": [
      {"measurement": "IC50 of Src inhibition (in vitro kinase assay)", "result": "~5", "unit": "nM"}
    ]}
  ]
}
